{"source": "IntAct's records for PubMed 16311606", "parents": {"B1": {"name": "Polycystin-2 (Homo sapiens), Q13563 (parent)", "chain": "MVNSSRVQPQQPGDAKRPPAPRAPDPGRLMAGCAAVGASLAAPGGLCEQRGLEIEMQRIRQAAARDPPAGAAASPSPPLSSCSRQAWSRDNPGFEAEEEEEEVEGEEGGMVVEMDVEWRPGSRRSAASSAVSSVGARSRGLGGYHGAGHPSGRRRRREDQGPPCPSPVGGGDPLHRHLPLEGQPPRVAWAERLVRGLRGLWGTRLMEESSTNREKYLKSVLRELVTYLLFLIVLCILTYGMMSSNVYYYTRMMSQLFLDTPVSKTEKTNFKTLSSMEDFWKFTEGSLLDGLYWKMQPSNQTEADNRSFIFYENLLLGVPRIRQLRVRNGSCSIPQDLRDEIKECYDVYSVSSEDRAPFGPRNGTAWIYTSEKDLNGSSHWGIIATYSGAGYYLDLSRTREETAAQVASLKKNVWLDRGTRATFIDFSVYNANINLFCVVRLLVEFPATGGVIPSWQFQPLKLIRYVTTFDFFLAACEIIFCFFIFYYVVEEILEIRIHKLHYFRSFWNCLDVVIVVLSVVAIGINIYRTSNVEVLLQFLEDQNTFPNFEHLAYWQIQFNNIAAVTVFFVWIKLFKFINFNRTMSQLSTTMSRCAKDLFGFAIMFFIIFLAYAQLAYLVFGTQVDDFSTFQECIFTQFRIILGDINFAEIEEANRVLGPIYFTTFVFFMFFILLNMFLAIINDTYSEVKSDLAQQKAEMELSDLIRKGYHKALVKLKLKKNTVDDISESLRQGGGKLNFDELRQDLKGKGHTDAEIEAIFTKYDQDGDQELTEHEHQQMRDDLEKEREDLDLDHSSLPRPMSSRSFPRSLDDSEEDDDEDSGHSSRRRGSISSGVSYEEFQVLVRRVDRMEHSIGSIVSKIDAVIVKLEIMERAKLKRREVLGRLLDGVAEDERLGRDSEIHREQMERLVREELERWESDDAASQISHGLGTPVGLNGQPRPRSSRPSSSQSTEGMEGAGGNGSSNVHV", "partner": "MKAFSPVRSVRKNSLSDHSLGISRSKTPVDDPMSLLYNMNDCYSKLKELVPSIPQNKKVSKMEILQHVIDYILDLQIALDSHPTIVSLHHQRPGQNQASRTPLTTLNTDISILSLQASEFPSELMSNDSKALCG"}}}
{"variants_of": "B1", "settings": "with id2_human ID2, Q02363"}
{"variant": "S812A", "effect of a mutation on the interaction": "disrupting interaction"}
